The results in this text go back to PMC3364985, “Staphylococcus aureus Surface Protein SdrE Binds Complement Regulator Factor H as an Immune Evasion Tactic” (PLoS ONE, 2012).

Bounds are passed on as bounds.

In test [1] the target is recombinant SdrE (6×His-tagged A region of serine-aspartate repeat-containing protein E) (S. aureus). Nature of the test: far-Western, overlay or dot blot; 5 µg of rSdrE, rClfA and BSA adsorbed to a PVDF membrane, blocked with 3% BSA/TBST, overlaid with purified fH (20 µg fH/10 ml block buffer) overnight; anti-fH, ECL, optical densitometry against a purified fH dilution series.
Chain of recombinant SdrE (6×His-tagged A region of serine-aspartate repeat-containing protein E) (S. aureus) (O86489 53-606 limits assumed): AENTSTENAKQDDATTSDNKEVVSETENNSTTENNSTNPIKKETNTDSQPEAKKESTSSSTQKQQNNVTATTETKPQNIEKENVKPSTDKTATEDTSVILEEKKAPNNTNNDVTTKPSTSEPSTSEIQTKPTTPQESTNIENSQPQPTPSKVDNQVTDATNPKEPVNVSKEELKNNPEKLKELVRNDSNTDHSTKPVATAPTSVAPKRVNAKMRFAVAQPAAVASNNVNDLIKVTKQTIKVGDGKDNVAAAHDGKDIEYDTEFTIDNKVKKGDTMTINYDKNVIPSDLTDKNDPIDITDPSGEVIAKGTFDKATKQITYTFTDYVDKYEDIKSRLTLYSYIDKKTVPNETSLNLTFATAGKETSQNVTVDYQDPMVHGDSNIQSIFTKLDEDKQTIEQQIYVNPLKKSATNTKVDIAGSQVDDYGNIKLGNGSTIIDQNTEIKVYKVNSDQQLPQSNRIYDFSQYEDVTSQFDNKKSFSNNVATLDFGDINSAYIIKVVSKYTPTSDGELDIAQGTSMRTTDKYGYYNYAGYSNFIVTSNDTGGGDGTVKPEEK

Test [2] deals with T1, SdrE expressed on the surface of Lactococcus lactis (pKS80-SdrE) (S. aureus, UniProt O86489 53-1132).
T1 construct: Compared throughout with L. lactis carrying the empty vector pKS80; also called L. lactis (pKS80-SdrE); SdrE-expressing L. lactis; source: L. lactis, constitutively expressed from pKS80, on the bacterial surface
T1 sequence (O86489 53-1132): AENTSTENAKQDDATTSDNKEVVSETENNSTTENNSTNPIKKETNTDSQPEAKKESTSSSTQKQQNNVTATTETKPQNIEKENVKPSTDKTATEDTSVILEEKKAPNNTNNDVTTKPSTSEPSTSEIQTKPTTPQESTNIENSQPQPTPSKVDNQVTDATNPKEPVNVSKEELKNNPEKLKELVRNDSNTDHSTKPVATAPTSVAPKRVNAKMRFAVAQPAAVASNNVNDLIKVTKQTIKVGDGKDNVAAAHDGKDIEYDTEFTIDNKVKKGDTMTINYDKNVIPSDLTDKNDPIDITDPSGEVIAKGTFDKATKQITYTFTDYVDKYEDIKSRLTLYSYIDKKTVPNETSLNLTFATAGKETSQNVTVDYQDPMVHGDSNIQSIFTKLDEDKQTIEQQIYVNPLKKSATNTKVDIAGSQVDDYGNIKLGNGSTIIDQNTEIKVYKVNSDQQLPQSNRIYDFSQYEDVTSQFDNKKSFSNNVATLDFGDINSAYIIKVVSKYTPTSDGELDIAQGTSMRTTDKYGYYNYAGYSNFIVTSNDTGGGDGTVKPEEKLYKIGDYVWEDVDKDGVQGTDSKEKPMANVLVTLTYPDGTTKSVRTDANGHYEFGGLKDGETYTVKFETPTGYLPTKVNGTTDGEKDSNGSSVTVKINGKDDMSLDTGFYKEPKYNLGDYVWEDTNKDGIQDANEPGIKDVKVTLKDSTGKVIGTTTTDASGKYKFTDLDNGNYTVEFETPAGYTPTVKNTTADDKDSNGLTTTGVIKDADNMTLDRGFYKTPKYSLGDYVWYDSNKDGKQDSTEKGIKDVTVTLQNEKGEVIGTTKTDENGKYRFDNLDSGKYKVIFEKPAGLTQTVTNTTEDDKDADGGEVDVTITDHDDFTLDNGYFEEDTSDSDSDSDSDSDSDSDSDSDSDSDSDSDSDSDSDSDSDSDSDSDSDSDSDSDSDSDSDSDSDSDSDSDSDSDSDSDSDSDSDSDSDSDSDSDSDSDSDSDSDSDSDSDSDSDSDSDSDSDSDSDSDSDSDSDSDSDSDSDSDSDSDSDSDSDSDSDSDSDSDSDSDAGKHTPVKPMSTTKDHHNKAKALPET
Nature of the test: far-Western, overlay or dot blot; whole L. lactis (pKS80-SdrE or pKS80) immobilised on a PVDF membrane, overlaid with 5% HI-serum in 0.05% gelatin/PBST for 1 hr; anti-fH, optical densitometry against a serum dilution series. As to conditions: partners not purified.

Test [3] addresses T1, SdrE expressed on the surface of …. Put plainly: binding to whole bacteria in solution, SDS extraction, fH ELISA; L. lactis (OD600 = 4.0) in GVBS^++ with various amounts of HI-serum, 1 hr, 37°C; bound proteins extracted with 2% SDS; fH ELISA with chicken antibodies specific for human fH. The settings on record: partners not purified.

Consider “complement regulatory protein factor H (from UniProt P08603 19-1231) (natural protein)”, for which the amount of fH bound in test [1] was 2.2 ng.

B1: complement regulatory protein factor H (natural protein)
chain: EDCNELPPRRNTEILTGSWSDQTYPEGTQAIYKCRPGYRSLGNVIMVCRKGEWVALNPLRKCQKRPCGHPGDTPFGTFTLTGGNVFEYGVKAVYTCNEGYQLLGEINYRECDTDGWTNDIPICEVVKCLPVTAPENGKIVSSAMEPDREYHFGQAVRFVCNSGYKIEGDEEMHCSDDGFWSKEKPKCVEISCKSPDVINGSPISQKIIYKENERFQYKCNMGYEYSERGDAVCTESGWRPLPSCEEKSCDNPYIPNGDYSPLRIKHRTGDEITYQCRNGFYPATRGNTAKCTSTGWIPAPRCTLKPCDYPDIKHGGLYHENMRRPYFPVAVGKYYSYYCDEHFETPSGSYWDHIHCTQDGWSPAVPCLRKCYFPYLENGYNQNYGRKFVQGKSIDVACHPGYALPKAQTTVTCMENGWSPTPRCIRVKTCSKSSIDIENGFISESQYTYALKEKAKYQCKLGYVTADGETSGSITCGKDGWSAQPTCIKSCDIPVFMNARTKNDFTWFKLNDTLDYECHDGYESNTGSTTGSIVCGYNGWSDLPICYERECELPKIDVHLVPDRKKDQYKVGEVLKFSCKPGFTIVGPNSVQCYHFGLSPDLPICKEQVQSCGPPPELLNGNVKEKTKEEYGHSEVVEYYCNPRFLMKGPNKIQCVDGEWTTLPVCIVEESTCGDIPELEHGWAQLSSPPYYYGDSVEFNCSESFTMIGHRSITCIHGVWTQLPQCVAIDKLKKCKSSNLIILEEHLKNKKEFDHNSNIRYRCRGKEGWIHTVCINGRWDPEVNCSMAQIQLCPPPPQIPNSHNMTTTLNYRDGEKVSVLCQENYLIQEGEEITCKDGRWQSIPLCVEKIPCSQPPQIEHGTINSSRSSQESYAHGTKLSYTCEGGFRISEENETTCYMGKWSSPPQCEGLPCKSPPEISHGVVAHMSDSYQYGEEVTYKCFEGFGIDGPAIAKCLGEKWSHPPSCIKTDCLSLPSFENAIPMGEKKDVYKAGEQVTYTCATYYKMDGASNVTCINSRWTGRPTCRDTSCVNPPTVQNAYIVSRQMSKYPSGERVRYQCRSPYEMFGDEEVMCLNGNWTEPPQCKDSTGKCGPPPPIDNGDITSFPLSVYAPASSVEYQCQNLYQLEGNKRITCRNGQWSEPPKCLHPCVISREIMENYNIALRWTAKQKLYSRTGESVEFVCKRGYRLSSRSHTLRTTCWDGKLEYPTCAKR
notes: complement factor H, human, 155 kDa plasma protein; the assay's purified field tells the two apart; also called fH; purified fH; source: bought: CompTech (purified fH)
With B1, the “fold more serum fH bound than on L. lactis (pKS80)” value in test [2] was 4 fold; in test [3], at most 4 fold.
